The series is described as follows: soluble on expression in E. coli; label from the status in PepcDB or PDB records.
In the case of “MSLKEANLLIDLRGEPGINCNGFCKFCYFRKVNKNNPQPFGCRYCQFTVGCDYCMYSVREINGDFIPLPFALMELQSSLLFKRYSKVNLTAGGDVSCYPQLEELCKAINNIGLKIHLGYTSGKGFDNVEIAKNLVDYGVDEVTFSVFSTNPKLRKEWMNDKNAETALKCLRYFCENCEVHCAIIVIPGVNDGEELKKTVSDLVDWGANAVILMRFANSEEQGLILGNAPLIEGIKPHSVEEFKNIVDEIHNEFGDYIRVTGTPLHDPVAGTPFALAKEENSHILERLKDKINGEATIITGNVAYPFLKKIFDETSVNVVKVNKDIADLITAKDLEKLDLKDVKETVFIPPKAFVHDRVAEEILRRDGVDRIVVRGVEQLTLDGEVSGIYTREEALKFEIEAFEELIGMINFFGMKKQEGHHHHHH”, the “soluble on expression in E. coli” value is reported as “soluble”.

In the case of “MSLKERFSPKMLSDITGVSIRTLHYYHEKGLLVPQQMSANGYRYYNVQDISKLQYILFLKELDLTLKQIQIYFEGDSDFRTKILHDNFYHIVKKRDRLNDIICTLEHHFHQDNEEIEVTTMQNFNLNEQYEKEAASKYGDTHYYQAYKDKQKSKDESEQQNHFEEINKQLNMFFDDMNQLYLNKVSILEASGKIKKLLCILKEQVPNCDNQFLEYIAQIYIEDERFVKFINKQRERGLNLYISDAIKTFIKEGHHHHHH”, the “soluble on expression in E. coli” value was “soluble”.

For the sequence “MSLKFMYSALLGNPVEHSISDELFEYLNHNIGVLDEYKHKKILVDSVCLEDKIKHLINDPKCIGLNITLPYKREVMRYIDNLDRVAEITGSVNNIYKSGNIITGTNTDWKGIYNTLVFFNISHITKCCVLGTGGTARAAIFALQKLQISPTVVYREPISENTRSLIKSFPDLKYITYKELADQQILNDMEIIINTTPVGMINYEESLPINFDHLDNVNYKDKYFMDVVFNPLHTKLHEYFGKKGAKIIDGLWVLIFQGIEAFSLWSDKINDGKYFFSKDDVVLIHTFLEGKIKGKEGHHHHHH”, the “soluble on expression in E. coli” value is “soluble”.

In the case of “MSLKGRVAVRTVDAIPQTFAINGIFRISRGSKTSAQVIAVSIAESGYIGRGECVPYARYGETIESVMDQIRSMTPAIEAGMDLSELQSAMAPGAARNAVDCALWDLRAQKTRQSLASVIELGHELQPVLTAFTISLDAPAAMGKAAAVHEHLPILKLKLGGDGDLERVRAVRAAAPHARLMVDANEAWSIDHLRAFAPEFAAMGVELIEQPLPADADDFLKSFNSPVPLAADESCRTLMSLSKIVGKYEIANIKLDKAGGLTEALSLQAAARASGLGTMVGCMVATSLSMAPGIILAQRADVVHLDGPLLLAEDRTPSLRYSGATLYPPEPEVWGGEGHHHHHH”, the “soluble on expression in E. coli” value is “soluble”.

In the case of “MSLKIDSIIFDLDGTLWNSIEGVCEAWKVVLKRHSNINKIITPKDIKASMGLQIDEIGKLLFPEEDEKMQLQLMNECCDEEKLYLGEHGGKLFAKLEPTLNKLSQKYKLFIVSNCEDGYIQSFFKAHGLNKYFTDFECSGVTGLSKGENNKLIIKRNSLKNPVYVGDTLKDFESAKIANIPFVYARYGFGDVNEYDYVIDSFEEMLTLDEGHHHHHH”, the “soluble on expression in E. coli” value was “soluble”.

Consider “MSLKIESNAFRLIEPGVFKKDTLTHDFEEKDIIVKPTKASVCHADLRYYTGNRRPEALAKKLPMALFHEGIGIVEDSKHPDFQQGDKVVIVPNIPSHLRKGTYPTTSFQDNYDENAVFMGSGFDGICQDRMVVSGDNVVKVPTDLDEDVALLAELCSVSLFPINQLDEITTETSPQVAIFGDGPVGYLAATALHYIYGIDKANLIVFGAVQEKLAAFEDFATTHLVFDFDFNQYRGVHTVFECTGGKFSESAINQAIDLIDRQGHIVLMGVTEERVGINTRDVLEKGLTFSGSSRSTKREFEQLIHAFSNKQYQQALRQLIPETYYHIHDTSDLKEAMDDTAAHKGWKKTYLQYHEGHHHHHH”, for which the “soluble on expression in E. coli” value is recorded as “soluble”.

In the case of “MSLKIFEFVPPTDKEIEEAQLKLGFKFSPEYIEFIKSGYDLGDAPIEALEISNPPSHADIFETLANARKYFQMPSEMCPICEDNSDYYCLNQKGEVVFWSHNGTTSEKWANVTVWRNQMATEVEGHHHHHH”, the “soluble on expression in E. coli” value is on record as “soluble”.

For the sequence “MSLKIGIVKHLNARPLTWGFEKNKKHEIVPENPAILKDYLLNGTIDLGLISSIECIRNDHVLNTYYGTGVCAREKVRSILFFKNKRENFPPKQILTDNGSKTSVALVRVLIYEESGLIPYVEPTDSKLIQEKISNGIGSHMLFGDNALLAKWNPEFYEVKDLAQWWNELTGLGFIFALWASKKSLKLDDLIFIQSLEYGVSHIEEIISHESRLSSTLVREYLTKELHYKITEEDQKGFLLFREKCSQLNLLEGHHHHHH”, the “soluble on expression in E. coli” value was “soluble”.

In the case of “MSLKIGKIVSVNFNQFRVKISSEIRGNSVNLAGTVYYFGNIGSYLKTTNSVGEQLICEVMSIFDSDTKLDSAAYDFDSNRELLLKPIGTITRDDRFNLGVGIFPGIYSEVNVVTFEDMELILQTGKDKELSKAIHQSFFLGESKNLINYPIDISINSFFNIHSAVLGNSGSGKSNTIAHIIQEIHKKKNNSAIGSRILIFDVNGEYKNAFTGHEISPYIKVRLLKPNIEATEDGVEPFYLPHFLMNIDEWSSFLMATDATQRPFWDKVLQESYKFYMIATHEGDDRQKLINYLRFKICNLIHILQAQGDSDTAIITTAQGILYGILTLIEMDDDLQRACQQEGVLQDLHDLNASCTIDWGRNDGKLMRAVELVENRINKDTLREVMDYRASGEEYFNYEFLKQAANLTLLEEDARGNGRVREYTSTMMTRLDFFLDNPDCAFMRKSPVGATNIDQYLDWLWQSDKTVPEKTNMVIIDTSELSKDALETLTSVTSRLHFTSRKKLKGSARREKPIHLVLDEAHRYIKKDSKYLLRENIFEQIAREGRKYALYLLVSSQRPSELSETVLSQCSNFIIHRIQNEIDMKYVYAILPYFSDDFANKIKQSVPGEALIFGNCVSMPLHVRVKQAYPEPNSENCKVHEEWFKEGHHHHHH”, the “soluble on expression in E. coli” value was “soluble”.

Turning to “MSLKIIIAGAGNVGTHLAKLLSREKQDIILMDDDEEKLSALSANFDLLTVTASPSSISGLKEVGVKEADLFIAVTPDESRNMTACMLATNLGAKKTVARIDNYEYLLPKNKEFFRKLGVDSLIYPEMLAAKEIVSSMRMSWVRQWWEFCGGALILIGTKMREKAEILNIPLHQLGAPDIPYHVVAIKRGTETIIPRGDDVIKLHDIVYFTTTRKYIPYIRKIAGKEDYADVRNVMIMGGSRIAVRTAQYVPDYMQVKIVDNDINRCNRLTELLDDKTMIINGDGRDMDLLIEEGLKNTEAFVALTDNSETNILACLAAKRMGVEKTVAEVENIDYIGMAESLDIGTVINKKMIAASHIYQMMLDADVSNVKCLTFANADVAEFTVPAGAKITKNLIKDLGLPKGTTIGGMIRNGEGVLVTGDTLIRPGDHVVVFCLSMMIKKIEKFFNEGHHHHHH”, the “soluble on expression in E. coli” value was “soluble”.

“MSLKIILPVKPISQLFPIPFVMGCEGVSAAMLLQFNNYDIKATQIMSHWPKHPTNPYKGYVGHPLLVKFGHHQTIFPDAFAPFLKQYDSRIVDGTGTSLNQLEKFIDKGQPVIIYHTSLGSKPLRRVFHFDNQPTKLVSNIHVTLLIGYDDDYYYYIDPLWSRLSKFVIFPSIIPNSKQIIKIKKHTLENSYNAPGKKCIYIDNEGHHHHHH”: the “soluble on expression in E. coli” value is on record as “not soluble”.

“MSLKIKCILIEDEISNEKELYFILRRYDDIEIVGMVQNTDEGIDLVKKLRPQAVFLDINVPNFNGIKLAEEIKDVDSTIAVIFVTAYDKYAVAAFEIKALDYILKPFSIARIEKAVERLKEYINVNKSMKEKLFELICEFNNMERKYIINKIPCENKGKIVLVDVNDIYFFYIKSEKTYVKLNDIIYVTSSTLNDMEKKTGFFRAHRSYLVNLNKIFEIYSWFNGTYKLIMSDYRKSEIPVSRGNVRKLKEIINIEGHHHHHH”: the “soluble on expression in E. coli” value is reported as “not soluble”.

Take “MSLKILVIGPSWVGDMVMSQSLYQRLKQQHPDAQIDVLAPAWCKPILERMPEVNQAIEMTIGHGAFNLLGRRAIGCELRDNRYTHAIVLPNSAKSALIPWFANIPKRTGWKGEFRYGLLNDLRPDKRVFQYMVERYVALAHPKATMLADVSLEHCPRPKLVIDAIVQQAARQRLSLVSSRPVIGLCPGAEFGPAKRWPDHYYAEVARYAIEQGFQVWLFGSAKDHSVTTQIQQALSEEQREYCANLAGETSLIEAVDLLAACHTVVSNDSGLMHVSAAVGCNIVAIYGSSSPKYTPPLTDKLAVVHTEIECRPCFKRVCPLEHLNCLNQLKPAQVIKALDKFIGKDSEGHHHHHH”: the “soluble on expression in E. coli” value is given as “soluble”.

The record behind these values is the DeepSol protein solubility set.
